Results reported in US20070072239A1 (Pfizer, published 2007).

Target: T1, Wnt3 (human, UniProt P56703 22-355 at identity 1.00), limits assumed)
T1 chain: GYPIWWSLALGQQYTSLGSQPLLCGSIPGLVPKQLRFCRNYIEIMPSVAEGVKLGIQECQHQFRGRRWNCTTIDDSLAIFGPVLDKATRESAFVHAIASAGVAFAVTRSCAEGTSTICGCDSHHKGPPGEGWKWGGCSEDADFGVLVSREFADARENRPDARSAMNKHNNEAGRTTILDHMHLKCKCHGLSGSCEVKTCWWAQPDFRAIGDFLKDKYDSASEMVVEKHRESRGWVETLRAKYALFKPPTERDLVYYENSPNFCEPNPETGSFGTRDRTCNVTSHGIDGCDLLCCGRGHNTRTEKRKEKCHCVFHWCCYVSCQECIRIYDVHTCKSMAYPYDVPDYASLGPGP
Test: cell-based or functional assay

B1: SFRP-1/SFRP-2(1-226)/(214-295) chimera (receptor)
chain: SEYDYVSFQSDIGPYQSGRFYTKPPQCVDIPADLRLCHNVGYKKMVLPNLLEHETMAEVKQQASSWVPLLNKNCHAGTQVFLCSLFAPVCLDRPIYPCRWLCEAVRDSCEPVMQFFGFYWPEMLKCDKFPEGDVCIAMTPPNATEASKPQGTTVCPPCDNELKSEAIIEHLCASEFALRMKIKEVKKENGDKKIVLETKSKTIYKLNGVSERDLKKSVLWLKDSLQCTCEEMNDINAPYLVMGQKQGGELVITSVKRWQKGQREFKRISRSIRKLQC
loss of Wnt3 antagonist activity relative to SFRP-1 (TCF-Luciferase reporter): ~40 % loss of activity

B2: SFRP-1/SFRP-2(1-295/285-295) chimera (receptor)
chain: SEYDYVSFQSDIGPYQSGRFYTKPPQCVDIPADLRLCHNVGYKKMVLPNLLEHETMAEVKQQASSWVPLLNKNCHAGTQVFLCSLFAPVCLDRPIYPCRWLCEAVRDSCEPVMQFFGFYWPEMLKCDKFPEGDVCIAMTPPNATEASKPQGTTVCPPCDNELKSEAIIEHLCASEFALRMKIKEVKKENGDKKIVPKKKKPLKLGPIKKKDLKKLVLYLKNGADCPCHQLDNLSHHFLIMGRKVKSQYLLTAIHKWDKKNKEFKRISRSIRKLQC
Wnt3 inhibitory activity relative to SFRP-1 (TCF-Luciferase reporter): ~20 % of SFRP-1 activity
loss of Wnt3 antagonist activity relative to SFRP-1 (TCF-Luciferase reporter): ~70 % loss of activity

B3: 3' His tagged SFRP-1 (receptor)
chain: SEYDYVSFQSDIGPYQSGRFYTKPPQCVDIPADLRLCHNVGYKKMVLPNLLEHETMAEVKQQASSWVPLLNKNCHAGTQVFLCSLFAPVCLDRPIYPCRWLCEAVRDSCEPVMQFFGFYWPEMLKCDKFPEGDVCIAMTPPNATEASKPQGTTVCPPCDNELKSEAIIEHLCASEFALRMKIKEVKKENGDKKIVPKKKKPLKLGPIKKKDLKKLVLYLKNGADCPCHQLDNLSHHFLIMGRKVKSQYLLTAIHKWDKKNKEFKNFMKKMKNHECPTFQSVFKHHHHHH
loss of Wnt inhibitory function relative to SFRP-1 (TCF-Luciferase reporter) (% loss of function): 30

B4: human SFRP-2 (receptor)
chain: LFLFGQPDFSYKRSNCKPIPANLQLCHGIEYQNMRLPNLLGHETMKEVLEQAGAWIPLVMKQCHPDTKKFLCSLFAPVCLDDLDETIQPCHSLCVQVKDRCAPVMSAFGFPWPDMLECDRFPQDNDLCIPLASSDHLLPATEEAPKVCEACKNKNDDDNDIMETLCKNDFALKIKVKEITYINRDTKIILETKSKTIYKLNGVSERDLKKSVLWLKDSLQCTCEEMNDINAPYLVMGQKQGGELVITSVKRWQKGQREFKRISRSIRKLQC
inhibition of Wnt3-mediated upregulation of the 16xTCF-Luciferase activity, relative to SFRP-1 (% less active): 25

B5: truncated SFRP-1 (Δ167-314) containing the CRD alone (receptor)
chain: SEYDYVSFQSDIGPYQSGRFYTKPPQCVDIPADLRLCHNVGYKKMVLPNLLEHETMAEVKQQASSWVPLLNKNCHAGTQVFLCSLFAPVCLDRPIYPCRWLCEAVRDSCEPVMQFFGFYWPEMLKCDKFPEGDVC
Wnt antagonist activity relative to full length SFRP-1 (TCF-Luciferase reporter, U2OS cells): ~80 % of full length SFRP-1 activity

B6: hOB SFRP-1 (human osteoblast secreted frizzled-related protein-1), wild-type full length (receptor)
chain: SEYDYVSFQSDIGPYQSGRFYTKPPQCVDIPADLRLCHNVGYKKMVLPNLLEHETMAEVKQQASSWVPLLNKNCHAGTQVFLCSLFAPVCLDRPIYPCRWLCEAVRDSCEPVMQFFGFYWPEMLKCDKFPEGDVCIAMTPPNATEASKPQGTTVCPPCDNELKSEAIIEHLCASEFALRMKIKEVKKENGDKKIVPKKKKPLKLGPIKKKDLKKLVLYLKNGADCPCHQLDNLSHHFLIMGRKVKSQYLLTAIHKWDKKNKEFKNFMKKMKNHECPTFQSVFK
inhibition of the Wnt-mediated upregulation of the 16xTCF-Luciferase reporter in U2OS cells: 90 % inhibition

B7: SFRP-1 CRD mutant KKMVL to NMTKM (receptor)
chain: SEYDYVSFQSDIGPYQSGRFYTKPPQCVDIPADLRLCHNVGYNMTKMPNLLEHETMAEVKQQASSWVPLLNKNCHAGTQVFLCSLFAPVCLDRPIYPCRWLCEAVRDSCEPVMQFFGFYWPEMLKCDKFPEGDVCIAMTPPNATEASKPQGTTVCPPCDNELKSEAIIEHLCASEFALRMKIKEVKKENGDKKIVPKKKKPLKLGPIKKKDLKKLVLYLKNGADCPCHQLDNLSHHFLIMGRKVKSQYLLTAIHKWDKKNKEFKNFMKKMKNHECPTFQSVFK
loss of Wnt3 antagonist activity relative to SFRP-1 (TCF-Luciferase reporter) (% loss of activity): 60

B8: SFRP-1 tyrosine 73 to aspartate mutant (receptor)
chain: SEYDYVSFQSDIGPYQSGRFYTKPPQCVDIPADLRLCHNVGDKKMVLPNLLEHETMAEVKQQASSWVPLLNKNCHAGTQVFLCSLFAPVCLDRPIYPCRWLCEAVRDSCEPVMQFFGFYWPEMLKCDKFPEGDVCIAMTPPNATEASKPQGTTVCPPCDNELKSEAIIEHLCASEFALRMKIKEVKKENGDKKIVPKKKKPLKLGPIKKKDLKKLVLYLKNGADCPCHQLDNLSHHFLIMGRKVKSQYLLTAIHKWDKKNKEFKNFMKKMKNHECPTFQSVFK
Wnt antagonist function compared to the wild type SFRP-1 (TCF-Luciferase reporter) (% of wild type SFRP-1): 40

B9: SFRP-1 tyrosine 73 to asparagine mutant (receptor)
chain: SEYDYVSFQSDIGPYQSGRFYTKPPQCVDIPADLRLCHNVGNKKMVLPNLLEHETMAEVKQQASSWVPLLNKNCHAGTQVFLCSLFAPVCLDRPIYPCRWLCEAVRDSCEPVMQFFGFYWPEMLKCDKFPEGDVCIAMTPPNATEASKPQGTTVCPPCDNELKSEAIIEHLCASEFALRMKIKEVKKENGDKKIVPKKKKPLKLGPIKKKDLKKLVLYLKNGADCPCHQLDNLSHHFLIMGRKVKSQYLLTAIHKWDKKNKEFKNFMKKMKNHECPTFQSVFK
Wnt antagonist function compared to the wild type SFRP-1 (TCF-Luciferase reporter) (% of wild type SFRP-1): 40

B10: SFRP-1 CRD mutant LLEHE (amino acids 81-85) to HLHHS (receptor)
chain: SEYDYVSFQSDIGPYQSGRFYTKPPQCVDIPADLRLCHNVGYKKMVLPNHLHHSTMAEVKQQASSWVPLLNKNCHAGTQVFLCSLFAPVCLDRPIYPCRWLCEAVRDSCEPVMQFFGFYWPEMLKCDKFPEGDVCIAMTPPNATEASKPQGTTVCPPCDNELKSEAIIEHLCASEFALRMKIKEVKKENGDKKIVPKKKKPLKLGPIKKKDLKKLVLYLKNGADCPCHQLDNLSHHFLIMGRKVKSQYLLTAIHKWDKKNKEFKNFMKKMKNHECPTFQSVFK
loss of Wnt3 antagonist activity relative to SFRP-1 (TCF-Luciferase reporter) (% loss of activity): 30

B11: SFRP-1 tyrosine 73 to serine mutant (receptor)
chain: SEYDYVSFQSDIGPYQSGRFYTKPPQCVDIPADLRLCHNVGSKKMVLPNLLEHETMAEVKQQASSWVPLLNKNCHAGTQVFLCSLFAPVCLDRPIYPCRWLCEAVRDSCEPVMQFFGFYWPEMLKCDKFPEGDVCIAMTPPNATEASKPQGTTVCPPCDNELKSEAIIEHLCASEFALRMKIKEVKKENGDKKIVPKKKKPLKLGPIKKKDLKKLVLYLKNGADCPCHQLDNLSHHFLIMGRKVKSQYLLTAIHKWDKKNKEFKNFMKKMKNHECPTFQSVFK
Wnt antagonist function compared to the wild type SFRP-1 (TCF-Luciferase reporter) (% of wild type SFRP-1): 40

B12: SFRP-1 mutant with a total of 10 lysine residues in the hyaluronan domain changed into alanine (receptor)
chain: SEYDYVSFQSDIGPYQSGRFYTKPPQCVDIPADLRLCHNVGYKKMVLPNLLEHETMAEVKQQASSWVPLLNKNCHAGTQVFLCSLFAPVCLDRPIYPCRWLCEAVRDSCEPVMQFFGFYWPEMLKCDKFPEGDVCIAMTPPNATEASKPQGTTVCPPCDNELKSEAIIEHLCASEFALRMKIKEVKKENGDKKIVPAAAAPLALGPIAAADLAALVLYLKNGADCPCHQLDNLSHHFLIMGRKVKSQYLLTAIHKWDKKNKEFKNFMKKMKNHECPTFQSVFK
loss of Wnt3 antagonist activity relative to SFRP-1 (TCF-Luciferase reporter) (% loss of activity): 35

B13: SFRP-1 hyaluronan-binding domain mutant, distal lysine residues to alanine (receptor)
chain: SEYDYVSFQSDIGPYQSGRFYTKPPQCVDIPADLRLCHNVGYKKMVLPNLLEHETMAEVKQQASSWVPLLNKNCHAGTQVFLCSLFAPVCLDRPIYPCRWLCEAVRDSCEPVMQFFGFYWPEMLKCDKFPEGDVCIAMTPPNATEASKPQGTTVCPPCDNELKSEAIIEHLCASEFALRMKIKEVKKENGDKKIVPKKKKPLKLGPIAAADLAALVLYLKNGADCPCHQLDNLSHHFLIMGRKVKSQYLLTAIHKWDKKNKEFKNFMKKMKNHECPTFQSVFK
loss of Wnt3 antagonist activity relative to SFRP-1 (TCF-Luciferase reporter) (% loss of activity): 15

B14: SFRP-1 tyrosine 73 to phenylalanine mutant (receptor)
chain: SEYDYVSFQSDIGPYQSGRFYTKPPQCVDIPADLRLCHNVGFKKMVLPNLLEHETMAEVKQQASSWVPLLNKNCHAGTQVFLCSLFAPVCLDRPIYPCRWLCEAVRDSCEPVMQFFGFYWPEMLKCDKFPEGDVCIAMTPPNATEASKPQGTTVCPPCDNELKSEAIIEHLCASEFALRMKIKEVKKENGDKKIVPKKKKPLKLGPIKKKDLKKLVLYLKNGADCPCHQLDNLSHHFLIMGRKVKSQYLLTAIHKWDKKNKEFKNFMKKMKNHECPTFQSVFK
loss of Wnt antagonist function relative to SFRP-1 (TCF-Luciferase reporter) (% loss of function): 20

B15: SFRP-1 CRD mutant … to … (receptor)
chain: SEYDYVSFQSDIGPYQSGRFYTKPPQCVDIPADLRLCKSLPWNMTKMPNLLEHETMAEVKQQASSWVPLLNKNCHAGTQVFLCSLFAPVCLDRPIYPCRWLCEAVRDSCEPVMQFFGFYWPEMLKCDKFPEGDVCIAMTPPNATEASKPQGTTVCPPCDNELKSEAIIEHLCASEFALRMKIKEVKKENGDKKIVPKKKKPLKLGPIKKKDLKKLVLYLKNGADCPCHQLDNLSHHFLIMGRKVKSQYLLTAIHKWDKKNKEFKNFMKKMKNHECPTFQSVFK
loss of Wnt3 antagonist activity relative to SFRP-1 (TCF-Luciferase reporter) (% loss of activity): 45

B16: SFRP-1 tyrosine 73 to alanine mutant (receptor)
chain: SEYDYVSFQSDIGPYQSGRFYTKPPQCVDIPADLRLCHNVGAKKMVLPNLLEHETMAEVKQQASSWVPLLNKNCHAGTQVFLCSLFAPVCLDRPIYPCRWLCEAVRDSCEPVMQFFGFYWPEMLKCDKFPEGDVCIAMTPPNATEASKPQGTTVCPPCDNELKSEAIIEHLCASEFALRMKIKEVKKENGDKKIVPKKKKPLKLGPIKKKDLKKLVLYLKNGADCPCHQLDNLSHHFLIMGRKVKSQYLLTAIHKWDKKNKEFKNFMKKMKNHECPTFQSVFK
Wnt antagonist function compared to the wild type SFRP-1 (TCF-Luciferase reporter) (% of wild type SFRP-1): 40

B17: human SFRP-3 (receptor)
chain: AACEPVRIPLCKSLPWNMTKMPNHLHHSTQDNAILAIEQFEGLLGTHCSPDLLFFLCAMYAPICTIDFQHEPIKPCKSVCERARQGCEPILIKYRHSWPENLACEELPVYDRGVCISPEAIVTADGADFPMDSSNGNCRGASSERCKCKPIRATQKTYFRNNYNYVIRAKVKEIKTKCHDVTAVVEVKEILKSSLVNIPRDTVNLYTSSGCLCPPLNVNEEYIIMGYEDEERSRLLLVEGSIAEKWKDRLGKKVKRWDMKLRHLGLSKSDSSNSDSTQSQKSGRNSNPRQARN
Wnt3 antagonist function relative to SFRP-1 (TCF-Luciferase reporter) (% less active): 60
